In publication PMC8605023 (2021) one finds Kd data, which are given here for five molecules.

Some targets named below: NTF2 domain of G3BP1 (human, UniProt Q13283 11-133); SARS-CoV E 1-16; SARS-CoV NSP3 2019-2038; SARS-CoV-2 E 1-16.
Assay in all cases: FP
Another test concerns the target T1, NTF2 domain of G3BP2 (human, UniProt Q9UN86 11-133).
T1 chain: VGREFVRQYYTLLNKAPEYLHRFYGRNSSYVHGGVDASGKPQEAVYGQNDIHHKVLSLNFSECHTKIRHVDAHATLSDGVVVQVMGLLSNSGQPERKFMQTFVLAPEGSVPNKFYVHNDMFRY

Test [1] has as its target MERS-CoV NSP14 peptide with the YxxL motif, synthetic (MERS-CoV, UniProt K9N7C7).
Test [2] concerns the target SARS-CoV-2 NSP14 peptide with the YxxL motif, synthetic (SARS-CoV-2, UniProt P0DTD1).
For test [3], the target named is SARS-CoV NSP14 peptide with the YxxL motif, synthetic (SARS-CoV, UniProt P0C6X7).
The target in test [4] is SARS-CoV-2 NSP3 2019-2038.

Chain of NTF2 domain of G3BP1 (Q13283 11-133): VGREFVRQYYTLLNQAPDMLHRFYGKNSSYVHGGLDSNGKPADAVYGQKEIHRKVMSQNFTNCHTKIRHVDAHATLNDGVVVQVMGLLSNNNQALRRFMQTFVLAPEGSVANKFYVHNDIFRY

Consider APRAVSFADNNDITNT [MERS-CoV N peptide corresponding to the ΦxFG peptide, synthetic], for which the Kd (in general, the equilibrium constant for the complex coming apart) with NTF2 domain of G3BP1 was 51 µM; in the test with NTF2 domain of G3BP2, 26 µM.

B1: clathrin coat adaptor protein AP2M1, tag removed (domain or fragment)
chain: RNELFLDVLESVNLLMSPQGQVLSAHVSGRVVMKSYLSGMPECKFGMNDKIVIEKQGKGTADETSKSGKQSIAIDDCTFHQCVRLSKFDSERSISFIPPDGEFELMRYRTTKDIILPFRVIPLVREVGRTKLEVKVVIKSNFKPSLLAQKIEVRIPTPLNTSGVQVICMKGKAKYKASENAIVWKIKRMAGMKESQISAEIELLPTNDKKKWARPPISMNFEVPFAPSGLKVRYLKVFEPKLNYSDHDVIKWVRYIGRSGIYETR
In the case of B1, the Kd in [1] stood at 3 µM; in test [2], 1.6 µM; in test [3], 1.6 µM.
In the case of APRITFGGPTDSTDNN [SARS-CoV N peptide with the ΦxFG motif, synthetic], the Kd with NTF2 domain of G3BP1 was determined as 2.8 µM; in the test with NTF2 domain of G3BP2 it was 1.7 µM.

B2: FERM domain of Radixin (domain or fragment)
chain: INVRVTTMDAELEFAIQPNTTGKQLFDQVVKTVGLREVWFFGLQYVDSKGYSTWLKLNKKVTQQDVKKENPLQFKFRAKFFPEDVSEELIQEITQRLFFLQVKEAILNDEIYCPPETAVLLASYAVQAKYGDYNKEIHKPGYLANDRLLPQRVLEQHKLTKEQWEERIQNWHEEHRGMLREDSMMEYLKIAQDLEMYGVNYFEIKNKKGTELWLGVDALGLNIYEHDDKLTPKIGFPWSEIRNISFNDKKFVIKPIDKKAPDFVFYAPRLRINKRILALCMGNHELYMRRR
For B2, the Kd was 11.9 µM with SARS-CoV E 1-16, 217 µM with SARS-CoV NSP3 2019-2038, 11.9 µM with SARS-CoV-2 E 1-16 and 38 µM in [4].
Regarding APRITFGGPSDSTGSN [SARS-CoV-2 N peptide with the ΦxFG motif, synthetic], the Kd in the test with NTF2 domain of G3BP2 was found to be 2.8 µM.
